This note sets out measurements from US20160000865A1 (REGENTS OF THE UNIVERSITY OF MICHIGAN, published 2016).

The chains are these.
B5: Endogenous Robo1 of mouse small intestinal crypts (receptor, UniProt O89026 20-1612, looked up)
chain: SRLRQEDFPPRIVEHPSDLIVSKGEPATLNCKAEGRPTPTIEWYKGGERVETDKDDPRSHRMLLPSGSLFFLRIVHGRKSRPDEGVYICVARNYLGEAVSHNASLEVAILRDDFRQNPSDVMVAVGEPAVMECQPPRGHPEPTISWKKDGSPLDDKDERITIRGGKLMITYTRKSDAGKYVCVGTNMVGERESEVAELTVLERPSFVKRPSNLAVTVDDSAEFKCEARGDPVPTVRWRKDDGELPKSRYEIRDDHTLKIRKVTAGDMGSYTCVAENMVGKAEASATLTVQEPPHFVVKPRDQVVALGRTVTFQCEATGNPQPAIFWRREGSQNLLFSYQPPQSSSRFSVSQTGDLTITNVQRSDVGYYICQTLNVAGSIITKAYLEVTDVIADRPPPVIRQGPVNQTVAVDGTLILSCVATGSPAPTILWRKDGVLVSTQDSRIKQLESGVLQIRYAKLGDTGRYTCTASTPSGEATWSAYIEVQEFGVPVQPPRPTDPNLIPSAPSKPEVTDVSKNTVTLSWQPNLNSGATPTSYIIEAFSHASGSSWQTAAENVKTETFAIKGLKPNAIYLFLVRAANAYGISDPSQISDPVKTQDVPPTSQGVDHKQVQRELGNVVLHLHNPTILSSSSVEVHWTVDQQSQYIQGYKILYRPSGASHGESEWLVFEVRTPTKNSVVIPDLRKGVNYEIKARPFFNEFQGADSEIKFAKTLEEAPSAPPRSVTVSKNDGNGTAILVTWQPPPEDTQNGMVQEYKVWCLGNETKYHINKTVDGSTFSVVIPSLVPGIRYSVEVAASTGAGPGVKSEPQFIQLDSHGNPVSPEDQVSLAQQISDVVRQPAFIAGIGAACWIILMVFSIWLYRHRKKRNGLTSTYAGIRKVPSFTFTPTVTYQRGGEAVSSGGRPGLLNISEPATQPWLADTWPNTGNNHNDCSINCCTAGNGNSDSNLTTYSRPADCIANYNNQLDNKQTNLMLPESTVYGDVDLSNKINEMKTFNSPNLKDGRFVNPSGQPTPYATTQLIQANLSNNMNNGAGDSSEKHWKPPGQQKPEVAPIQYNIMEQNKLNKDYRANDTIPPTIPYNQSYDQNTGGSYNSSDRGSSTSGSQGHKKGARTPKAPKQGGMNWADLLPPPPAHPPPHSNSEEYNMSVDESYDQEMPCPVPPAPMYLQQDELQEEEDERGPTPPVRGAASSPAAVSYSHQSTATLTPSPQEELQPMLQDCPEDLGHMPHPPDRRRQPVSPPPPPRPISPPHTYGYISGPLVSDMDTDAPEEEEDEADMEVAKMQTRRLLLRGLEQTPASSVGDLESSVTGSMINGWGSASEEDNISSGRSSVSSSDGSFFTDADFAQAVAAAAEYAGLKVARRQMQDAAGRRHFHASQCPRPTSPVSTDSNMSAVVIQKARPAKKQKHQPGHLRREAYADDLPPPPVPPPAIKSPTVQSKAQLEVRPVMVPKLASIEARTDRSSDRKGGSYKGREALDGRQVTDLRTNPSDPREAQEQPNDGKGRGTRQPKRDLPPAKTHLGQEDILPYCRPTFPTSNNPRDPSSSSSMSSRGSGSRQREQANVGRRNMAEMQVLGGFERGDENNEELEETES
notes: also called native Robo1

The target of test [1] is T1, Recombinant human Rspo1 fused with 6-His (His) tag expressed in Sf9 insect cells (human, UniProt Q2MKA7 21-263).
T1 construct: Baculovirus expression; also called rRspo1; R-spondin 1; not shown: 6-His tag
Briefly: glutathione-Sepharose pulldown, immunoblot. How it is done: (§1) To confirm our initial findings, various deletion mutants of Robo1 fused with hemagglutin (HA) tag were employed (FIG. 15B) (see, e.g., Wong, K., et al., (2001) Cell 107, 209-221). Recombinant human Rspo1 fused with 6-His (His) tag expressed in Sf9 insect cells (rRspo1; FIG. 15C and FIG. 17B) were also purified. […] Following incubation, immunoprecipitation was performed by the anti-HA Ab, followed by immunoblotting with the Abs for rRspo1 (His) and Robo1 (HA). […] Compared to human IgG (hIgG) bound Protein A (Pro-A) beads, recombinant Robo1-Fc chimera (rRobo1-Fc; FIG. 17C) bound Pro-A beads precipitated rRspo1 (His; FIG. 15E and FIG. 16C). Additionally, rRobo1-Fc bound Pro-A beads precipitated purified recombinant Rspo1-N (rRspo1-N), but not recombinant Rspo1-C (rRspo1-C; FIGS. 15C and F and FIGS. 16D and 17B). To determine which extracellular Ig domains of Robo1 could recognize Rspo1, recombinant extracellular Ig domains 1-5 of Robo1 fused with glutathione S-transferase were constructed, expressed and purified (GST-Ig1-5; FIG. 15B and FIG. 16D).
For the pulldown assay, 3 μg of the appropriate purified GST-tagged fusion protein and isolated His-tagged fusion protein were incubated with 20 μl glutathione Sepharose beads (GE Healthcare Biosciences) in PBS containing 1% BSA at 4° C. for 2 h. […]
(In general: Immunoblotting shows a protein as a band on a membrane.)

Test [2] concerns the target B5. Briefly: co-immunoprecipitation from mouse intestinal crypt lysates, immunoblot. How it is done: 293 cells were co-transfected with the plasmids of Robo1 or Robo1-dCC3 and LRP6. Transfected Robo1 was immunoprecipitated by the anti-HA Ab, followed by immunoblotting for LRP6 (myc) and Robo1 (HA). (L) LRP6 interacts with CC3. 293 cells transfected with the LRP6 plasmid were incubated with rCC0/1, rCC2 and rCC3. After washing, transfected LRP6 was immunoprecipitated by the anti-HA Ab, followed by immunoblotting for rCC0/1, rCC2 and rCC3 (His) and LRP6 (myc). (M) LRP6 M3 binds to CC3. The glutathione-Sepharose beads were incubated with the GST-M1-3. After washing, they were incubated with rCC3, followed by immunoblotting for rCC3 (His) and rGST-M1-3. (N and O) Transfected Robo1 enhances LRP6 binding to LGR5. 293 cells were co-transfected with the plasmids of LGR5 and LRP6, in the presence or absence of the Robo1 plasmid (N). Alternatively, 293 cells were co-transfected with the plasmids of LGR5, LRP6 and Robo1, followed by infection with Ad-GFP or Ad-CC3 (0). Lysates of these transfectants were immunoprecipitate for LRP6 (myc) and immunoblotted for LGR5 (flag), LRP6 (myc) and Robo1 (HA), respectively. (P) Endogenous Robo1 promotes LRP6 association with LGR5. […]
This example describes Rspo1 binds to extracellular Robo1. […] Indeed, the intestinal expression of Rspo1 was detected in the tissue sections of adult small intestine (FIG. 14). […]

Test [3] concerns the target T2, Recombinant human Robo1 encoding the extracellular five Ig-like domains fused with the Fc domains of human … (human, UniProt Q9Y6N7 26-540; P01857 99-330 = IgG part).
T2 construct: domain: extracellular five Ig domains (1-1621 bp);domain: Fc domains of human IgG1; also called Robo1-Fc; rRobo1-Fc
Briefly: Protein A bead pulldown, immunoblot for His. The method, then: as §1

Test [4] concerns the target T3, Native LRP6 of mouse small intestinal crypts (mouse, UniProt O88572 20-1613).
T3 construct: also called endogenous LRP6; endogenous Lrp6
Briefly: immunoprecipitation of endogenous Robo1 from crypt lysates of C57 small intestines, immunoblot (FIG. 15H).

T3 sequence (O88572 20-1613 limits assumed): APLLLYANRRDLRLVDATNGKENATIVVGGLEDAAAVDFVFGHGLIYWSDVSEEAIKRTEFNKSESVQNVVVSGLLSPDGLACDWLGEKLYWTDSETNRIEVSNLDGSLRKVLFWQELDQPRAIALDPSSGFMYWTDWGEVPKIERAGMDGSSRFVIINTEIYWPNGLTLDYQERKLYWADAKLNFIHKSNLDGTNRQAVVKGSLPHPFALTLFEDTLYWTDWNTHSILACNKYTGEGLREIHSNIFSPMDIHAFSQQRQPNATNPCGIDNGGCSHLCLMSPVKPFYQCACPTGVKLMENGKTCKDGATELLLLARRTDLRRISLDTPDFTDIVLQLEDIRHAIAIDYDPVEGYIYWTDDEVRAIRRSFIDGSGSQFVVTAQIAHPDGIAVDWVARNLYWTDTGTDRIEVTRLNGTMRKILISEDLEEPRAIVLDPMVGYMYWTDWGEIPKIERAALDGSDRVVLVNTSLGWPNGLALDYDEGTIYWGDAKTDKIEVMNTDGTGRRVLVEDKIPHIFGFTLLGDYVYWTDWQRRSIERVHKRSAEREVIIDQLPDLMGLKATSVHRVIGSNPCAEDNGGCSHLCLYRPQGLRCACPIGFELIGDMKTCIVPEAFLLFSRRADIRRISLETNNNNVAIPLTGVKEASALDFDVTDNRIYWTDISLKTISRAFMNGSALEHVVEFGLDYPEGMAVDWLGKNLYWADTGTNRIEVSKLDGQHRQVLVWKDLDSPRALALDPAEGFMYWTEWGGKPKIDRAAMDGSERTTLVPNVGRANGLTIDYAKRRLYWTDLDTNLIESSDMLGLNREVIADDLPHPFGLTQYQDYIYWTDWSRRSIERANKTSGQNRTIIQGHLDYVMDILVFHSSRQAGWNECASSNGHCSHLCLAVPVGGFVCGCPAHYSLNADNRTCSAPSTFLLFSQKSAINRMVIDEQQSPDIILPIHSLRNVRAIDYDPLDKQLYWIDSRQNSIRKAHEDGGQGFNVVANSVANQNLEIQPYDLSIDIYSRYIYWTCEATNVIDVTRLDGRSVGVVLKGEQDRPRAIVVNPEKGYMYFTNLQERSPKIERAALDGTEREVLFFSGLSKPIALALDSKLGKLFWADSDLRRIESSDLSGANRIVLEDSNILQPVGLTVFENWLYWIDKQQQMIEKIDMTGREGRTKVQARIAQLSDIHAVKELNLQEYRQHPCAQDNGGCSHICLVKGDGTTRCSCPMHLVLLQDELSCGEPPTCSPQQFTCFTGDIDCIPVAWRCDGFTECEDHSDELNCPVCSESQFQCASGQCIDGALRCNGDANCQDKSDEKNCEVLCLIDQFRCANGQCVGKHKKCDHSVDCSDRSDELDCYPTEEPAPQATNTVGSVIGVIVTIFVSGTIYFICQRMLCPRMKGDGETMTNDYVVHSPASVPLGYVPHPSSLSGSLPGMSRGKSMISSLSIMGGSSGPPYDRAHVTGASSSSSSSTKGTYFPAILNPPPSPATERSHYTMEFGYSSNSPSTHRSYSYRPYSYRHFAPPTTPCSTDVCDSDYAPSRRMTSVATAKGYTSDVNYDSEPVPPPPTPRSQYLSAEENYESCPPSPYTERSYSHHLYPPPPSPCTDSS
T2 sequence (Q9Y6N7 other isoform, or with tags, fused parts or gaps limits assumed): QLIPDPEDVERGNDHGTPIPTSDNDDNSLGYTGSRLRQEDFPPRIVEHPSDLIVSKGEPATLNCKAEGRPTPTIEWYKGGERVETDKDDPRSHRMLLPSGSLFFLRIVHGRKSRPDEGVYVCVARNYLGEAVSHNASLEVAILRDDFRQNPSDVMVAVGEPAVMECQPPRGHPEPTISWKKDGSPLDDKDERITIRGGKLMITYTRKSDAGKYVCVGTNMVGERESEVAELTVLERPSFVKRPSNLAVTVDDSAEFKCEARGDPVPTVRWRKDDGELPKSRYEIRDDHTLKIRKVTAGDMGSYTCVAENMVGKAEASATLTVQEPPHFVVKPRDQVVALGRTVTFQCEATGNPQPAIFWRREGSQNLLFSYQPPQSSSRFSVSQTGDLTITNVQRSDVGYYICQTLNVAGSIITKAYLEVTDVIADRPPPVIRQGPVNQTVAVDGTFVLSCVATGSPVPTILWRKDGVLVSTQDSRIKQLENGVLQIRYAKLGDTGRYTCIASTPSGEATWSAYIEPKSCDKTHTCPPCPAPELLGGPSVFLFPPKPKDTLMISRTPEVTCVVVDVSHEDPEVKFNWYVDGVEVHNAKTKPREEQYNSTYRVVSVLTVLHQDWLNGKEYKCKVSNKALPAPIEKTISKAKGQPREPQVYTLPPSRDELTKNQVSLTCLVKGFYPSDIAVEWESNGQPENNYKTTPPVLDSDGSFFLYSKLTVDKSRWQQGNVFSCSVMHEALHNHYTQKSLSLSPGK

B1: Extracellular Ig2 domain of Robo1 fused with GST (other, human, UniProt Q9Y6N7 170-257, looked up)
chain: DDFRQNPSDVMVAVGEPAVMECQPPRGHPEPTISWKKDGSPLDDKDERITIRGGKLMITYTRKSDAGKYVCVGTNMVGERESEVAELT
notes: domain: extracellular Ig2 domain; also called GST-Ig2; not shown: glutathione S-transferase of the PGEX6P1 vector
B1: in test [1], the binding result was “no binding”.

B2: Native Rspo1 of mouse small intestinal crypts (ligand, UniProt Q9Z132 21-265, looked up)
chain: SRGIKGKRQRRISAEGSQACAKGCELCSEVNGCLKCSPKLFILLERNDIRQVGVCLPSCPPGYFDARNPDMNKCIKCKIEHCEACFSHNFCTKCQEALYLHKGRCYPACPEGSTAANSTMECGSPAQCEMSEWSPWGPCSKKRKLCGFRKGSEERTRRVLHAPGGDHTTCSDTKETRKCTVRRTPCPEGQKRRKGGQGRRENANRHPARKNSKEPRSNSRRHKGQQQPQPGTTGPLTSVGPTWAQ
As to B2, in test [2], the binding result is “binds”.

B3: Extracellular Ig5 domain of Robo1 fused with GST (other, human, UniProt Q9Y6N7 455-541, looked up)
chain: PVIRQGPVNQTVAVDGTFVLSCVATGSPVPTILWRKDGVLVSTQDSRIKQLENGVLQIRYAKLGDTGRYTCIASTPSGEATWSAYIE
notes: domain: extracellular Ig5 domain; also called GST-Ig5; not shown: glutathione S-transferase of the PGEX6P1 vector
Turning to B3, the binding result in test [1] is listed as “no binding”.

B4: Carboxyl-terminal segment of Rspo1 including one TSR repeat, fused with 6-His tag (ligand, human, UniProt Q2MKA7 147-263, looked up)
chain: QCEMSEWSPWGPCSKKQQLCGFRRGSEERTRRVLHAPVGDHAACSDTKETRRCTVRRVPCPEGQKRRKGGQGRRENANRNLARKESKEAGAGSRRRKGQQQQQQQGTVGPLTSAGPA
notes: domain: carboxyl-terminus of Rspo1 containing one TSR repeat; also called rRspo1-C; Rspo1-C; not shown: 6-His tag of the PETM vector
Consider B4, for which the binding result in test [3] is reported as “no binding”.

Consider B5, for which, in test [4], the binding result is on record as “binds”.
